The DeepSol protein solubility set

Assay: soluble on expression in E. coli; label from the status in PepcDB or PDB records

Sequence | soluble on expression in E. coli
MARQHRLRAGRPVAAEACMSGGETGRTLRALFMSVSLGAGHDQAQQAVKQAFAERGVELLGAEHDSVEYLSTFERSFTVDLYEFELRYAPWLYRGFYWLTDQDQPWNIISRMFTWLGMGAFKDELRELRPEVVINSFWAPAAVCDTLRAQTGQRFLNCLIVTDYRAHLHWARRETDLLMVASEETRRQMLERGVRPEQVEVTGIPISPAFREVLAADRWALRAELFSEMSLRPGVPLLLLSGGGRGHYAAAADVLTELGNLGRAVQVLVPASRQGEGTETIGGATVHHLGFRRDLPRLLAASDLVVGKAGGLTVAEATALGVPLVIYAPIPGQEEHNADFLERHGAGLWARARHDVRPLVLRALDPAEHARLSAGARAVGIPDAADRVAGAILRRLGDGLGDELGDSRGPA | not soluble
PEQDIVYISASSGSTGVPTASPFTQSDFDGWIDYEARQFWSSGMRPSDRYVHSLNFSLFIGGPCVLGAQKLGALTIHAGTIPSDRLLQILRQFQATVIWTTPSYAWYLGETAIKEGYDLRKDLAVRRIFVAGEPGGSIPETRNRIEQLWGASVYDYYGLSDIFGSCAGMCEQKE | not soluble
AIAASSTDQNLMDLSDKDTREKLSFWDRRVDPMAPLTDRQTDSILELRAAAEETLLPAELPIEDICSLSSRSLRSSFTAALPESTEEVLLQGFQMLELHNHRIETAQQFFSWFSKLQVQMDQDEASKYRKTRDVLNGYQEQCDAILNDVNTALDHLDSLQKQYLFVSTKTGTLHEACEQLLKEQSELVDLAESIQEKLSYFNELENINTKLNSPTLSVNSEGFVPMLSKLDECIEYVSSHPNFKDYPVYLTKFKQCLSKAMQLIKSHTVNTLQNLTGQLSKRDPLGAPSA | not soluble
MKVLGLIVEYNPFHNGHLYHLEESKKISGADFVVCVMSGNFIQRGEPAIVNKWARTKMALSAGADLVIELPLSCAMASAEYFASGAVRILNDIGIVDYICFGSEHGDVKTLDYIAQILVEEPESYKSFLKEELDNGLSYPAARESALKKYTAHSINIPQIISSSNNILGIEYLKALRRIKSSIIPLTIKRINNDYNTENITGSISSASSIRKYISTSNSTSFDDVLAMTMPKTSVDILFEEFSAGRGPVFKEDFYPVVTSLIRKMTPEQIRNFAYVSEGLENRIKSAADTAGTYEELVESICTRRYTKTRVQRILMGILMGVTSKDLDMLSRFDSPQYARILGFNSKGKQLLSQIKKKSSIPLVLKLSDFIKSCDPVLKRKLELEILATDLYVMCYKNPAFRKAGQEFTQNIIIM | soluble
MSLIENLWRGICIISASEDAFSAGETIKEKLKSFEIPVVHYRYKDAEIETIWKCYDAIVFVMALEGATRIVCKYAKSKTEDPAIVCIDDKINYVIPLLGGHWGANDIARELSVILNSTPIITTAAEIKGKLSIERIANILIAKIINPENIVKINAALLRDESICIDGIDVNVNFPENIKVNSEECSYIISLRGDKEYKDKIVVWLKPLKISIGIGSKKDVKMEEIRDGIYKVLERLNLKRERIGIIASIREEVKKIADEFNVRFRLVNEEEINNFMNPCLTPPSKTLIEVGLKGVAEISALIAGGRNSKLILRKIAISRNSTIAVATYEGHHHHHH | soluble
MGSDKIHHHHHHMNKLEERSQHRKSRFRFLVISTFWRVLLLLKNDAEPLFHLGNIHYAYGHKASAMNYWKEAVSKNREHEKAWHNLVQCAVIQEEWEQAAEGLTILCRNHPTRFEYMSLYTHALKKLGKKEELEEWYLSHINGPHHEWAIEGLGMLYIRTRREIDAFKLLSPFVRKFPNRPVGLKILGISSIRTNQYEAGLTFLEKSLELKEDKEVKSLVDRVKRLKKVRGGNR | not soluble
MPTPEDVPMDENDAGRVAEGSQDESKTPSREVLKKLLNEVEMAEMEENEMWYLISQKWWNSLIKAVRDGFVDDVGPIDNSQISECRNGSFFLKQRLAEQVDYTPVPEILFKRLERFYHIDDDRRDYIQRRVVRKDGKLCIEVYPRIVHITSARNRDIKADLVLRPDDTMVSLRERVIGELSLSTTDNIRFYVMNGENYELIDTAQSIDSYFDTVQKVVVDVEEDGEFFIKGKSATPKSLFGTQSSSSHGGNGISNSYNSPSPSTGVVTRTTPGACGLSNLGNTCFMASAFQCLSNMPPLREYFLANTYQNDINEDNPLGTHGHLAMAVGELMKGMWSGDYASINPRKFKSIIGQFAPRFNGYSQQDAHELMAYVLDGLHEDLNRIKKKPYIEDSDEDAKLPEAEYAAKSWEVYKMRNDSIIVDTLHGQLKSTLICPVCEKISIKFDPFGYLSLPLPPKEQIVKQTVIVMFLTRKWAKFSLGITDTTTVEEAERLMLDKLQPEQQHHFVFFHVPSQYHDDITMMRPGDRVRMPGREVYVAEVEHDLQVKGTRLFVAYNRIKLVRSASLPMIYSLPTGYPLTRGFLNDHVFSTTKHFFINPKAVAELGGGNSNDDDSMSGSNSADEREPYKLFVGPPGSTASLPIPPTDDPIPFPDENSHDIYSNFLQIVFQWKDLKIFNQYKGNELIEREMTVSTRRKVLLQETLDWFTTKEQLGEQDSWYCPQCKKHERATKQLALWKLPEILILHLKRFQYTKWSREKLTWEVVIPVRGLDLTDKVANPNHEKAIYDLIAVSRHYGSLSGGHYTAIGYNDREQKWFDFNDSSANPTYPPAEPYESSDPYILVYRRRKLDSNGKPIEPSAVSESLHSRPKRGAAPTISSATSSASSSRHQVDENMEMEED | not soluble
MSEEKKDSSRPPVRNYLKQIDDFFEQTPLRNVIADLNHFFQKGNRLLTFPVDLYEVGEELVVTAELPGIQKEQIQIEIQSEYLKVSVKEEILEEEEQTSHNYYRRERSISEASRLIKLPYSINKKAAKASYQNGVLEIRAPKLPQQHDILSID | not soluble
MIEDYALIGDMQIAALVCQDGTVDWLCLPRFDSHAVFAGLLGTEEHGFWRLGPAHASDAEPPRASRRTYRGDSLILESEWDTPRGTVRVTDFMPPRDGAPQLIRIVEGVTGRVPMRSALEHHHHHH | soluble
MGSDKIHHHHHHMSLQRPDEKLKSDVLIGVGLRHQHFTEALTTPSNIDFVEVHSENFFAQGGATQSVLAQASEKYAISLHSTAMGLGSAQGVPSHYLQKLKQLASTCNPILMSDHACFSWSQLKGQQVHAGDLLPLAYSEQTLMVLSHNIDRVQQSLGRSLLVENLSAYIQYSHACMPETEFLVRLAELTGCKLLVDLNNIIVTANNINAAQPLDYAQQWLAEIPTDMVGEIHLAGFTEVKEGELIIDDHSQAVSSQGWQLYRSALERFGKIPTLVEWDNNLPSWHTLVAEADKARMIAKQVFGDNNSSKITTAMTGLESEFIHE | not soluble
MKQKRSSSGLKKRIFSTFGKASEERPSLLLLDLPIDILLAITKQLDTETRMIVRKVSPAFRDIIDYQGSGVKTMKIGKDCITIDWKRIEYREGVHCSCLIIYQGHIKTKIYESPQSLMFQDLSILLKSPRIRLSWLDLAPISCTSYNWTGVDVNSIVKILEPIKSRHIERVYFQDINYAEVVLILQKFKAGFLREISLDSEQINGWSIPQIGGMVHLEQWKRAQHLKIHSFVNLDPLINHISHFHTIQLLCQSMSKLQMLKWKEIINTSKTLVKCVLRGNANFAGLARVFDPAFEQAYGNISYVSADEFNCTIRFMPENFCIMKLK | not soluble
MSLSNHSSDIEVGHSMNLTNHFLVAMPSMKDPYFKRSVIYICEHNQDGAMGLMINAPIDITVGGMLKQVDIEPAYPQSHQENLKKPVFNGGPVSEDRGFILHRPRDHYESSMKMTDDIAVTTSKDILTVLGTEAEPEGYIVALGYSGWSAGQLEVELTENSWLTIEADPELIFNTPVHEKWQKAIQKLGISPAQLSSDAGHEGGSHHHHHH | soluble
